Assay results as given in article PMC11187071, “The binding mechanism of an anti-multiple myeloma antibody to the human GPRC5D homodimer” (Nature Communications, 2024).
Changes are numbered by the printed parent chain. Each block holds one binder with its values, some of them ahead of it.

Assays:
[1] = molecular target: T1, WT GPRC5D expressed on HEK293T cells (Homo sapiens, UniProt Q9NZD1); assay: flow cytometry on cells; HEK293T cells transiently transfected with WT or mutated GPRC5D, incubated with purified IgG150_18 at different concentrations for 60 min, detected with goat anti-human IgG (Fc specific)-FITC at 4 °C; % of total, normalized to expression level; settings: one partner purified
T1 construct: human GPRC5D, UniProt Q9NZD1; also called GPRC5D-WT; source: HEK293T, transiently transfected, on cells

[2] = molecular target: the molecule itself; assay: cryo-EM structure; GPRC5D and scFv150_18 co-expressed in Hi5 insect cells, complex purified by TALON IMAC and Superdex 200 in LMNG/CHS, 20 mM HEPES pH 7.4, 100 mM NaCl; C2 symmetry, 3.34 Å

binding result [1]: binds
B1: IgG150-18 with a single mutation at Y228 (HCDR2) (antibody, V domains shown)
VH: QVQLVESGGGLVHPGGSLRLSCAASGFTFRSHSMNWVRQAPGKGLEWVSSISSDSTYTAYADSVKGRFTISRDNAKNSLYLQMNSLRAEDTAVYYCARSGGQWKYYDYWGQGTLVTVSS
VL: SSELTQDPAVSVALGQTVRITCQGDSLRSYYASWYQQKPGQAPVLVIYGKNNRPSGIPDRFSGSSSGNTASLTITGAQAEDEADYYCNSRDSSGNPPVVFGGGTKLTVL
notes: as the heavy chain variable domain of m3 (from scFv m2, PDB 8YZK) with a single mutation at Y228 (HCDR2; number as printed for the scFv); human IgG heavy chain constant region; as the light chain of m3; Residue number counts as in the scFv structure, not on the IgG heavy chain; also called Y228 mutant antibody; source: HEK-293F, transfected, purified (protein A, Superdex 200)

EC50 [1]: ~4.6 nM
B2: IgG150-18 (scFv150-18 cloned into human IgG format) (antibody, V domains shown)
VH: B1 VH with A59Y
VL: B1 VL
notes: heavy chain variable domain as in the scFv m2 (PDB 8YZK); human IgG heavy chain constant region; light chain variable domain as in the scFv m2 (PDB 8YZK); human light chain constant region; also called antibody150_18; scFv150_18 in its IgG format; source: HEK-293F, transfected, purified (protein A, Superdex 200)

B3: human GPRC5D (residues 1-298) with N-terminal BRIL fusion, cryo-EM construct (receptor, UniProt Q9NZD1 1-298, looked up)
chain: MYKDCIESTGDYFLLCDAEGPWGIILESLAILGIVVTILLLLAFLFLMRKIQDCSQWNVLPTQLLFLLSVLGLFGLAFAFIIELNQQTAPVRYFLFGVLFALCFSCLLAHASNLVKLVRGCVSFSWTTILCIAIGCSLLQIIIATEYVTLIMTRGMMFVNMTPCQLNVDFVVLLVYVLFLMALTFFVSKATFCGPCENWKQHGRLIFITVLFSIIIWVVWISMLLRGNPQFQRQPQWDDPVVCIALVTNAWVFLLLYIVPELCILYRSCRQECPLQGNACPVTAYQHSFQVENQELSR
notes: human GPRC5D, UniProt Q9NZD1, residues 1-298; Order at the N-terminus as printed: haemagglutinin signal peptide, Flag tag, BRIL, then GPRC5D 1-298, HRV 3C site, 10x His; Membranes were treated with iodoacetamide before solubilisation; also called hGPRC5D; GPRC5D homodimer; not shown: BRIL (thermostabilized E. coli apocytochrome b562RIL), N-terminal, kept; 10x His, C-terminal, kept
stoichiometry N [2]: 2
